# According to the supplement of paper PMC10567573:
# B1: KLHL13 (parent)
# chain: TGEFLKLPFERLAFVLSSNSLKHC
# Variants of: B1
# Test: protein stability index of a GFP-peptide fusion (GPS, HEK-293T) (PSI 1-6); higher = more stable
# Conditions: c terminus: a fixed tail appended
# 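Further: lentivirally expressed fusions sorted by FACS into six bins by GFP to DsRed ratio, PSI derived from sequencing read proportions per bin multiplied by bin number.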
row,Variant,protein stability index
1,TGEFLKLPFEVLAFVLSSNSLKHC [R11V],3.99
2,TGEFLKLPFEQLAFVLSSNSLKHC [R11Q],3.1
3,TGEFLKLPFENLAFVLSSNSLKHC [R11N],3.3
4,TGEFLKLPFEKLAFVLSSNSLKHC [R11K],3.47
5,TGEFLKLPFEWLAFVLSSNSLKHC [R11W],2.11
6,TGEFLKLPFESLAFVLSSNSLKHC [R11S],3.23
7,TGEFLKLPFECLAFVLSSNSLKHC [R11C],2.12
8,TGEFLKLPFETLAFVLSSNSLKHC [R11T],4.01
9,TGEFLKLPFEMLAFVLSSNSLKHC [R11M],3.39
10,TGEFLKLPFEGLAFVLSSNSLKHC [R11G],2.54
11,TGEFLKLPFEFLAFVLSSNSLKHC [R11F],3.1
12,TGEFLKLPFEPLAFVLSSNSLKHC [R11P],3.17
13,TGEFLKLPFEALAFVLSSNSLKHC [R11A],3.93
14,TGEFLKLPFEDLAFVLSSNSLKHC [R11D],2.08
15,TGEFLKLPFEHLAFVLSSNSLKHC [R11H],1.62
16,TGEFLKLPFEELAFVLSSNSLKHC [R11E],2.48
17,TGEFLKLPFYRLAFVLSSNSLKHC [E10Y],3.3
18,TGEFLKLPFRRLAFVLSSNSLKHC [E10R],4.24
19,TGEFLKLPFHRLAFVLSSNSLKHC [E10H],2.69
20,TGEFLKLPFPRLAFVLSSNSLKHC [E10P],2.75
21,TGEFLKLPFNRLAFVLSSNSLKHC [E10N],1.99
22,TGEFLKLPFSRLAFVLSSNSLKHC [E10S],2.96
23,TGEFLKLPFCRLAFVLSSNSLKHC [E10C],2.48
24,TGEFLKLPFMRLAFVLSSNSLKHC [E10M],3.02

row,Variant,protein stability index
1,TGEFLKLPFTRLAFVLSSNSLKHC [E10T],2.76
2,TGEFLKLPFDRLAFVLSSNSLKHC [E10D],3.16
3,TGEFLKLPFWRLAFVLSSNSLKHC [E10W],3.59
4,TGEFLKLPFKRLAFVLSSNSLKHC [E10K],2.76
5,TGEFLKLPFLRLAFVLSSNSLKHC [E10L],2.88
6,TGEFLKLPFQRLAFVLSSNSLKHC [E10Q],2.03
7,TGEFLKLPFGRLAFVLSSNSLKHC [E10G],2.42
8,TGEFLKLPFERLAFVLSSLSLKHC [N19L],3.66
9,TGEFLKLPFERLAFVLSSQSLKHC [N19Q],1.81
10,TGEFLKLPFERLAFVLSSTSLKHC [N19T],2.98
11,TGEFLKLPFERLAFVLSSCSLKHC [N19C],4.21
12,TGEFLKLPFERLAFVLSSVSLKHC [N19V],2.24
13,TGEFLKLPFERLAFVLSSESLKHC [N19E],2.44
14,TGEFLKLPFERLAFVLSSGSLKHC [N19G],3.21
15,TGEFLKLPFERLAFVLSSKSLKHC [N19K],2.22
16,TGEFLKLPFERLAFVLSSRSLKHC [N19R],2.56
17,TGEFLKLPFERLAFVLSSWSLKHC [N19W],3.01
18,TGEFLKLPFERLAFVLSSYSLKHC [N19Y],3.05
19,TGEFLKLPFERLAFVLSSPSLKHC [N19P],2.62
20,TGEFLKLPFERLAFVLSSDSLKHC [N19D],1.56
21,TGEFLKLPFERLAFVLSSMSLKHC [N19M],3.78
22,TGEFLKLPFERLACVLSSNSLKHC [F14C],1.95
23,TGEFLKLPFERLASVLSSNSLKHC [F14S],2.21
24,TGEFLKLPFERLATVLSSNSLKHC [F14T],2.21

row,Variant,protein stability index
1,TGEFLKLPFERLARVLSSNSLKHC [F14R],1.4
2,TGEFLKLPFERLAPVLSSNSLKHC [F14P],2.69
3,TGEFLKLPFERLADVLSSNSLKHC [F14D],1.98
4,TGEFLKLPFERLAKVLSSNSLKHC [F14K],1.79
5,TGEFLKLPFERLAGVLSSNSLKHC [F14G],2.54
6,TGEFLKLPFERLAAVLSSNSLKHC [F14A],1.42
7,TGEFLKLPFERLAVVLSSNSLKHC [F14V],1.13
8,TGEFLKLPFERLAYVLSSNSLKHC [F14Y],2.36
9,TGEFLKLPFERLAHVLSSNSLKHC [F14H],1.8
10,TGEFLKLPFERLANVLSSNSLKHC [F14N],2.33
11,TGEFLKLPFERLAEVLSSNSLKHC [F14E],2.33
12,TGEFLKLPFERLAMVLSSNSLKHC [F14M],2.74
13,TGEFLKLPFERLALVLSSNSLKHC [F14L],2.31
14,TGEFLKLPFERLAWVLSSNSLKHC [F14W],3.04
15,TGEFLKLPFERLAQVLSSNSLKHC [F14Q],1.66
16,TGEFLKLPFERLAFVLSQNSLKHC [S18Q],1.61
17,TGEFLKLPFERLAFVLSCNSLKHC [S18C],3.11
18,TGEFLKLPFERLAFVLSDNSLKHC [S18D],2.42
19,TGEFLKLPFERLAFVLSFNSLKHC [S18F],2.48
20,TGEFLKLPFERLAFVLSANSLKHC [S18A],1.35
21,TGEFLKLPFERLAFVLSLNSLKHC [S18L],3.02
22,TGEFLKLPFERLAFVLSENSLKHC [S18E],2.37
23,TGEFLKLPFERLAFVLSWNSLKHC [S18W],2.81
24,TGEFLKLPFERLAFVLSHNSLKHC [S18H],2.48

row,Variant,protein stability index
1,TGEFLKLPFERLAFVLSPNSLKHC [S18P],2.64
2,TGEFLKLPFERLAFVLSNNSLKHC [S18N],1.98
3,TGEFLKLPFERLAFVLSKNSLKHC [S18K],3.09
4,TGEFLKLPFERLAFVLSVNSLKHC [S18V],4.13
5,TGEFLKLPFERLAFVLSYNSLKHC [S18Y],2.79
6,TGEFLKLPFERVAFVLSSNSLKHC [L12V],1.44
7,TGEFLKLPFERDAFVLSSNSLKHC [L12D],2.38
8,TGEFLKLPFERTAFVLSSNSLKHC [L12T],1.53
9,TGEFLKLPFERSAFVLSSNSLKHC [L12S],1.92
10,TGEFLKLPFERMAFVLSSNSLKHC [L12M],3.48
11,TGEFLKLPFERKAFVLSSNSLKHC [L12K],2.12
12,TGEFLKLPFERYAFVLSSNSLKHC [L12Y],1.76
13,TGEFLKLPFERHAFVLSSNSLKHC [L12H],2.27
14,TGEFLKLPFERFAFVLSSNSLKHC [L12F],3.73
15,TGEFLKLPFERPAFVLSSNSLKHC [L12P],1.77
16,TGEFLKLPFERGAFVLSSNSLKHC [L12G],2.83
17,TGEFLKLPFERQAFVLSSNSLKHC [L12Q],2.11
18,TGEFLKLPFERCAFVLSSNSLKHC [L12C],3.25
19,TGEFLKLPFERAAFVLSSNSLKHC [L12A],1.99
20,TGEFLKLPFEREAFVLSSNSLKHC [L12E],1.96
21,TGEFLKLPFERRAFVLSSNSLKHC [L12R],2.35
22,TGEFLKLPFERNAFVLSSNSLKHC [L12N],2.15
